Experimental findings from patent US20110177070A1 (EMERGENT PRODUCT DEVELOPMENT SEATLLE, published 2011) are described below.

One assay concerns the target T1, recombinant human sIL-6R (human, UniProt P08887 20-358, limits assumed).
T1 construct: Bought soluble receptor; also called human soluble IL6R; IL6R alone
T1 sequence (looked up): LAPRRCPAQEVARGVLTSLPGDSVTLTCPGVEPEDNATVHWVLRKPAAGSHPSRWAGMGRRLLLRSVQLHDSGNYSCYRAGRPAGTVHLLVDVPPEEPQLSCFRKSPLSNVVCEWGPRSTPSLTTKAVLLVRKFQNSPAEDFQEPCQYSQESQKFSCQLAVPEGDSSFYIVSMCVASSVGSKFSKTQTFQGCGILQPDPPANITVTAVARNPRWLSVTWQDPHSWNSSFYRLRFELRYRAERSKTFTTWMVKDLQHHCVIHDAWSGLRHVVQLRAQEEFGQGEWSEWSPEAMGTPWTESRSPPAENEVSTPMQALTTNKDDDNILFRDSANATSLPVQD
The experiment in a line: sandwich ELISA: Xceptor captured on anti-human IgG-Fc, sIL-6R, anti-human IL-6R-biotin. Here is the method: Added to each well of a 96-well plate was 100 μl goat anti-human IgG-Fc (ICN Pharmaceuticals, Costa Mesa, Calif.) from a 2 μg/ml solution in PBS, pH 7.2-7.4, The plates were covered, and incubated overnight at 4° C. After washing four times with PBS-T, 250 μl Blocking buffer (PBS-T with 3% BSA or 10% normal goat serum) was added to each well, the plate was covered, and incubated at room temperature for 2 hours (or at 4° C. overnight). After washing the plate three times with PBS-T, added in duplicate wells to the anti-human IgG-Fc coated plate was 100 μl/well Xceptor TNFRSF1B::anti-HIL6 samples, positive control anti-human IL-6R(R&D Systems, Minneapolis, Minn.) and negative controls human IgG or human gp130-Fc chimera (R&D Systems), each serially diluted three-fold in Working buffer starting at 300 ng/ml, the plate was covered, and incubated at room temperature for about 1 to 2 hours. After washing the plate five times with PBS-T, added in duplicate wells was 100 μl/well recombinant human sIL-6R(R&D Systems) from a 75 pM solution in Working buffer, the plate was covered, and incubated at room temperature for about 1 to 2 hours. After washing the plate five times with PBS-T, added 100 μl/well anti-human IL-6R-biotin (R&D Systems) from a 100 ng/ml solution in Working buffer, the plate was covered, and incubated at room temperature for about 1 to 2 hours. After washing the plate five times with PBS-T, 100 μl per well horse radish peroxidase-conjugated streptavidin (Zymed, San Francisco, Calif.) diluted 1:4,000 in Working buffer was added, the plate was covered, and incubated at room temperature for 30 minutes. After washing the plate six times with PBS-T, 100 μl per well 3,3,5,5-tetramentylbenzidine (TMB) substrate solution (Pierce, Rockford, Ill.) was added for about 3 to 5 minutes and then the reaction was stopped with 50 μl Stop buffer (1N H₂SO₄) per well. The absorbance of each well was read at 450 nm.

For the next assay, the target named is T2, recombinant human TNF-α (human, UniProt P01375 77-233).
T2 construct: also called rhTNF-α
The assay is described as follows: sandwich ELISA: Xceptor captured on anti-human IgG-Fc, 2 ng/ml TNF-α, anti-human TNF-α-biotin. Here is the method:
Added to each well of a 96-well plate was 100 μl goat anti-human IgG-Fc (ICN Pharmaceuticals, Costa Mesa, Calif.) from a 2 μg/ml solution in PBS, pH 7.2-7.4. The plate was covered, and incubated overnight at 4° C. After washing four times with PBS-T, 250 μl Blocking buffer was added to each well, the plate was covered, and incubated at room temperature for 2 hours (or at 4° C. overnight). After washing the plate three times with PBS-T, added in duplicate wells to the anti-human IgG-Fc coated plate was 100 μl/well Xceptor TNFRSF1B::anti-HIL6 samples, positive controls Enbrel® (etanercept) and recombinant human TNFR2 (TNFRSF1B)-Fc chimera (R&D Systems, Minneapolis, Minn.), and negative controls human IgG or human gp130-Fc chimera (R&D Systems), each serially diluted three-fold in Working buffer starting at 300 ng/ml, the plate was covered, and incubated at room temperature for about 1 to 2 hours. After washing the plate five times with PBS-T, added in duplicate wells was 100 μl/well recombinant human TNF-α (R&D Systems) from a 2 ng/ml solution in Working buffer, the plate was covered, and incubated at room temperature for about 1 to 2 hours. After washing the plate five times with PBS-T, added 100 μl/well anti-human TNF-α-biotin (R&D Systems) from a 200 ng/ml solution in Working buffer, the plate was covered, and incubated at room temperature for about 1 to 2 hours. After washing the plate five times with PBS-T, 100 μl per well horse radish peroxidase-conjugated streptavidin (Jackson ImmunoResearch, West Grove, Pa.) diluted 1:1,000 in Working buffer was added, the plate was covered, and incubated at room temperature for 30 minutes. After washing the plate six times with PBS-T, 100 μl per well 3,3,5,5-tetramentylbenzidine (TMB) substrate solution (Pierce, Rockford, Ill.) was added for about 3 to 5 minutes and then the reaction was stopped with 50 μl Stop buffer (1N H₂SO₄) per well. The absorbance of each well was read at 450 nm.

T2 sequence (P01375 77-233 limits assumed): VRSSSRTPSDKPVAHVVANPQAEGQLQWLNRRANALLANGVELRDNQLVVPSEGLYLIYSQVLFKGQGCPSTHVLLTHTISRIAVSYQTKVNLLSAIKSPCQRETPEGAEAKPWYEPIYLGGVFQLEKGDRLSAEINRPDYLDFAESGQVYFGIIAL

B1: Xceptor fusion protein TRU(XT6)-1002 (Fc fusion)
chain: LPAQVAFTPYAPEPGSTCRLREYYDQTAQMCCSKCSPGQHAKVFCTKTSDTVCDSCEDSTYTQLWNWVPECLSCGSRCSSDQVETQACTREQNRICTCRPGWYCALSKQEGCRLCAPLRKCRPGFGVARPGTETSDVVCKPCAPGTFSNTTSSTDICRPHQICNVVAIPGNASMDAVCTSTSPTRSMAPGAVHLPQPVSTRSQHTQPTPEPSTAPSTSFLLPMGPSPPAEGSTGDTGEPKSSDKTHTCPPCPAPEAAGAPSVFLFPPKPKDTLMISRTPEVTCVVVDVSHEDPEVKFNWYVDGVEVHNAKTKPREEQYNSTYRVVSVLTVLHQDWLNGKAYACAVSNKALPAPIEKTISKAKGQPREPQVYTLPPSRDELTKNQVSLTCLVKGFYPSDIAVEWESNGQPENNYKTTPPVLDSDGSFFLYSKLTVDKSRWQQGNVFSCSVMHEALHNHYTQKSLSLSPGQRHNNSSLNTRTQKARHSPNSEVQLLESGGGLVQPGGSLRLSCAASGFTFSFYQMHWVRQAPGKGLEWVSGIYPSGGYTKYADSVKGRFTISRDNSKNTLYLQMNSLRAEDTAVYYCARDLGYGSSWYYFDYWGQGTLVTVSSGGGGSGGGGSGGGGSQSALTQPASVSGSPGQSITISCSGTDSDVGGYNHVSWYQQHPGKAPKLIIYDVDHRPSGISNRFSGSKSGNTASLTISGLQAEDEADYYCSSYRSGSTYVFGTGTKVTVL
notes: also called Xceptor TNFRSF1B::anti-HIL6
For the molecule B1, the binding result with recombinant human sIL-6R is “no binding (tested: Xceptor from 300 ng/ml; sIL-6R 75 pM)”; with recombinant human TNF-α it was “binds”.

B2: Xceptor fusion protein TRU(X6T)-1019 (Fc fusion)
chain: EVQLLESGGGLVQPGGSLRLSCAASGFTFSWYLMHWVRQAPGKGLEWVSGIWPSGGHTLYADSVKGRFTISRDNSKNTLYLQMNSLRAEDTAVYYCAREPLLWFGELSYNWFDPWGQGTLVTVSSGGGGSGGGGSGGGGSQDIQMTQSPSSVSASVGDRVTITCRASQGISSWLAWYQQKPGKAPKLLIYAASSLQSGVPSRFSGSGSGTDFTLTISSLQPEDFATYYCQQANSFPLTFGGGTKVEIKTGEPKSSDKTHTCPPCPAPEAAGAPSVFLFPPKPKDTLMISRTPEVTCVVVDVSHEDPEVKFNWYVDGVEVHNAKTKPREEQYNSTYRVVSVLTVLHQDWLNGKAYACAVSNKALPAPIEKTISKAKGQPREPQVYTLPPSRDELTKNQVSLTCLVKGFYPSDIAVEWESNGQPENNYKTTPPVLDSDGSFFLYSKLTVDKSRWQQGNVFSCSVMHEALHNHYTQKSLSLSPGQRHNNSSLNTRTQKARHSPNSLPAQVAFTPYAPEPGSTCRLREYYDQTAQMCCSKCSPGQHAKVFCTKTSDTVCDSCEDSTYTQLWNWVPECLSCGSRCSSDQVETQACTREQNRICTCRPGWYCALSKQEGCRLCAPLRKCRPGFGVARPGTETSDVVCKPCAPGTFSNTTSSTDICRPHQICNVVAIPGNASMDAVCTSTSPTRSMAPGAVHLPQPVSTRSQHTQPTPEPSTAPSTSFLLPMGPSPPAEGSTGD
On to B2, for which the values for the binding result in the assay with recombinant human sIL-6R and in the assay with recombinant human TNF-α were “no binding (tested: Xceptor from 300 ng/ml; sIL-6R 75 pM)” and “binds”, respectively.

B3: Xceptor fusion protein TRU(XT6)-1058 (Fc fusion)
chain: LPAQVAFTPYAPEPGSTCRLREYYDQTAQMCCSKCSPGQHAKVFCTKTSDTVCDSCEDSTYTQLWNWVPECLSCGSRCSSDQVETQACTREQNRICTCRPGWYCALSKQEGCRLCAPLRKCRPGFGVARPGTETSDVVCKPCAPGTFSNTTSSTDICRPHQICNVVAIPGNASMDAVCTSTSPTRSMAPGAVHLPQPVSTRSQHTQPTPEPSTAPSTSFLLPMGPSPPAEGSTGDTGEPKSSDKTHTCPPCPAPEAAGAPSVFLFPPKPKDTLMISRTPEVTCVVVDVSHEDPEVKFNWYVDGVEVHNAKTKPREEQYNSTYRVVSVLTVLHQDWLNGKAYACAVSNKALPAPIEKTISKAKGQPREPQVYTLPPSRDELTKNQVSLTCLVKGFYPSDIAVEWESNGQPENNYKTTPPVLDSDGSFFLYSKLTVDKSRWQQGNVFSCSVMHEALHNHYTQKSLSLSPGQRHNNSSLNTRTQKARHSPNSEVQLLESGGGLVQPGGSLRLSCAASGFTFSMYTMHWVRQAPGKGLEWVSWISPSGGWTKYADSVKGRFTISRDNSKNTLYLQMNSLRAEDTAVYYCAVSPWGGPFDYWGQGTLVTVSSGGGGSGGGGSGGGGSQDIQMTQSPSTLSASVGDRVTITCRASQSISSWLAWYQQKPGKAPKLLIYKASTLESGVPSRFSAGGSGTEFTLTISSLQPDDFGTYYCQQYNSYSLTFGGGTKVEII
For the molecule B3, the figures for the binding result in the assay with recombinant human sIL-6R and with recombinant human TNF-α were “no binding (tested: Xceptor from 300 ng/ml; sIL-6R 75 pM)” and “binds”, respectively.

B4: Xceptor fusion protein TRU(XT6)-1019 (Fc fusion)
chain: LPAQVAFTPYAPEPGSTCRLREYYDQTAQMCCSKCSPGQHAKVFCTKTSDTVCDSCEDSTYTQLWNWVPECLSCGSRCSSDQVETQACTREQNRICTCRPGWYCALSKQEGCRLCAPLRKCRPGFGVARPGTETSDVVCKPCAPGTFSNTTSSTDICRPHQICNVVAIPGNASMDAVCTSTSPTRSMAPGAVHLPQPVSTRSQHTQPTPEPSTAPSTSFLLPMGPSPPAEGSTGDTGEPKSSDKTHTCPPCPAPEAAGAPSVFLFPPKPKDTLMISRTPEVTCVVVDVSHEDPEVKFNWYVDGVEVHNAKTKPREEQYNSTYRVVSVLTVLHQDWLNGKAYACAVSNKALPAPIEKTISKAKGQPREPQVYTLPPSRDELTKNQVSLTCLVKGFYPSDIAVEWESNGQPENNYKTTPPVLDSDGSFFLYSKLTVDKSRWQQGNVFSCSVMHEALHNHYTQKSLSLSPGQRHNNSSLNTRTQKARHSPNSEVQLLESGGGLVQPGGSLRLSCAASGFTFSWYLMHWVRQAPGKGLEWVSGIWPSGGHTLYADSVKGRFTISRDNSKNTLYLQMNSLRAEDTAVYYCAREPLLWFGELSYNWFDPWGQGTLVTVSSGGGGSGGGGSGGGGSQDIQMTQSPSSVSASVGDRVTITCRASQGISSWLAWYQQKPGKAPKLLIYAASSLQSGVPSRFSGSGSGTDFTLTISSLQPEDFATYYCQQANSFPLTFGGGTKVEIK
notes: as for B1
Consider B4, for which the binding result in the assay with recombinant human sIL-6R is given as “no binding (tested: Xceptor from 300 ng/ml; sIL-6R 75 pM)”; with recombinant human TNF-α, “binds”.
